Target: T1, membrane CD146 on cells (U87, U373, HUVEC) (human, UniProt P43121 24-646)
T1 construct: whole, on cells; also called MCAM; membranous CD146
T1 sequence (looked up): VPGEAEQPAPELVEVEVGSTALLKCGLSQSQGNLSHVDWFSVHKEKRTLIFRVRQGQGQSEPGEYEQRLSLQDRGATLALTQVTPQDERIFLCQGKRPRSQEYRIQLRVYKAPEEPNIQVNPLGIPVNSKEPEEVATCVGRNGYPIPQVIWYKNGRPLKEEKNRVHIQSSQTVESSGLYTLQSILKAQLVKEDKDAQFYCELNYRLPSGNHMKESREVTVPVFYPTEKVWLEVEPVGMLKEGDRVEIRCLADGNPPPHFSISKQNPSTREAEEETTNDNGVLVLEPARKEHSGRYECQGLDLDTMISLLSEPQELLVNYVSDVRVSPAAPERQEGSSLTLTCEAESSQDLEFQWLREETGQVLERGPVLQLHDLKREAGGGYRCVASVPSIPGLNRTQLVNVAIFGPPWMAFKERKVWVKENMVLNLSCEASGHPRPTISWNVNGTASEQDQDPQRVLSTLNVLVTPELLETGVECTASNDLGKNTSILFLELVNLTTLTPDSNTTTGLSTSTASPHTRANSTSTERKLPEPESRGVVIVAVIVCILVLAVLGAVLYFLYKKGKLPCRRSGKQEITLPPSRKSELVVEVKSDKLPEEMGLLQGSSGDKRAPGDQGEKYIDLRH
Experiment: co-immunoprecipitation with anti-CD146 antibody S-Endo1 from U87 cells (reproduced in U373), western blot
Protocol: Non-confluent U373 cells were used for immunoprecipitation with IgG or anti-CD146 antibody. Western-blotting was then carried out using antibodies directed against VEGFR2, CD146 and integrin subunits αv and β3. Membrane receptor EPcam was used as a negative control (A). U373 cells transfected or not with siRNA targeting β3 integrin were stimulated for 25 min with sCD146 or VEGF, and CD146 was immunoprecipitated before western blotting was done using antibody directed against total phospho-tyrosine (B). Control, CD146-KO, VEGFR2-KO or β3-KO U87 cells were stimulated for 25 min with either sCD146 or VEGF. Lysates were then subjected to western-blotting and membranes were probed with either anti-phospho β3 Y759 (C) or anti-phospho VEGFR2 Y1054 (D). Average of 3 experiments is shown; *P<0.05, **P<0.01, ***p<0.001, experimental vs control.
Briefly, cells were grown on plates and treated as a function of the experiment, then washed in PBS, scraped off the plates and extracted with 300 μl of ice-cold RIPA buffer (150 mM NaCl, 50 mM Tris HCl, pH 7.4, 2.4 mM EDTA, 1% Nonidet P40, 0.5 mM phenylmethylsulfonyl fluoride, supplemented with protease and phosphatase inhibitor (A32959)) for 30 min at 4° C. After centrifugation (12,000 g, 10 min, 4° C.) to eliminate cell debris and nuclei, the Pierce™ BCA protein assay kit was used to quantify protein concentration. […]

binding result: no binding
B1: EPCAM on cells (U87, U373) (other, human, UniProt P16422 24-314, looked up)
chain: QEECVCENYKLAVNCFVNNNRQCQCTSVGAQNTVICSKLAAKCLVMKAEMNGSKLGRRAKPEGALQNNDGLYDPDCDESGLFKAKQCNGTSMCWCVNTAGVRRTDKDTEITCSERVRTYWIIIELKHKAREKPYDSKSLRTALQKEITTRYQLDPKFITSILYENNVITIDLVQNSSQKTQNDVDIADVAYYFEKDVKGESLFHSKKMDLTVNGEQLDLDPGQTLIYYVDEKAPEFSMQGLKAGVIAVIVVVVIAVVAGIVVLVISRKKRMAKYEKAEIKEMGEMHRELNA
notes: whole, on cells

Reference: patent US20260132217A1 (UNIVERSITE D AIX MARSEILLE, published 2026)
